Results from IntAct's records for PubMed 15890343.

Target: otx2_mouse Otx2 (UniProt P80206)
Sequence (P80206 whole entry): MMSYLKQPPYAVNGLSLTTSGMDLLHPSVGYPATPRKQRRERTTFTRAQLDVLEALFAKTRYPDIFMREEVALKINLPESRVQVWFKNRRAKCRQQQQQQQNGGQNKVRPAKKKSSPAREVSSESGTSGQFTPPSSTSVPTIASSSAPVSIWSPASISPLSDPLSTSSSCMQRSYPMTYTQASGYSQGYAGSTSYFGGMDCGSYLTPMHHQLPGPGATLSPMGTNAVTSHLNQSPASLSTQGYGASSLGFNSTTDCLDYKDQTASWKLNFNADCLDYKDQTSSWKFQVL

Diencephalon/mesencephalon homeobox protein 1 (Mus musculus), Q91ZK4 R122W, sequence (Q91ZK4 whole entry R122W): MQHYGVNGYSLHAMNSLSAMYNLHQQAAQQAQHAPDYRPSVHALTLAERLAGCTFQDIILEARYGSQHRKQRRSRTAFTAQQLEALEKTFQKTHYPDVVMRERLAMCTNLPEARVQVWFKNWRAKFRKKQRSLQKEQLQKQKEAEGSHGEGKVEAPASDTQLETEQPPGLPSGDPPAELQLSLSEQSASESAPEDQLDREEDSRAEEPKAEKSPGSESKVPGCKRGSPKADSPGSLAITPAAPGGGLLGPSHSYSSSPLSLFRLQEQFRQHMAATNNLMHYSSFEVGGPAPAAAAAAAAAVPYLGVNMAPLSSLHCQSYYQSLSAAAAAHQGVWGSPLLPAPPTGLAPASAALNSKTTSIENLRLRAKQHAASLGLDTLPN

effect of a mutation on the interaction: disrupting interaction
Substance: Diencephalon/mesencephalon homeobox protein 1 (Mus musculus), Q91ZK4 R122W
